The values below come from patent US20260231968A1, “AN ECO-FRIENDLY, SUSTAINABLE FOOD PRESERVATIVE” (priority 2023, published 2026).

Common to all, as to assay type: cell-based
One series relates to E. coli. As to the kind of experiment: Thermal stability of psoriasin, E. coli standard growth assay. As to the method:
In another study, psoriasin stock (36 mg/mL in 1×PBS) was exposed to temperatures of 70° C., 80° C., and 90° C. for periods of 15, 30, and 60 minutes. After thermal exposure, the activity of the protein was assessed against E. coli in a standard growth assay with 0.4%, 0.2% or 0.1% psoriasin.

Series [1] is described as follows: Thermal stability of psoriasin, microbial growth inhibition test (CLSI M27/M38). The conditions noted are these: stock 36 mg/mL in 1×PBS, 4° C to 84° C for one hour. As to the method: In order to assess its thermal stability, psoriasin stock (36 mg/mL in 1×PBS) was subjected to various temperatures ranging from 4° C. to 84° C. for one hour. The thermally treated psoriasin was subsequently used in a microbial growth inhibition test based on standardized protocols M27 (yeasts) and M38 (filamentous fungi) of the Clinical and Laboratory Standards Institute.

The subject of a further series is Listeria monocytogenes. Nature of the series: Microbial Growth Inhibition Test, broth microdilution optical method. The conditions noted are these: LB, TSB. As to the method:
(§1) The IC90 of psoriasin for several microorganisms was determined by Microbial Growth Inhibition Tests. The tests were performed using the Broth Microdilution Optical Method based on standardized protocols M27 (yeasts) and M38 (filamentous fungi) of the Clinical and Laboratory Standards Institute. […] MOPS, LB (Luria-Bertani), and TSB ([…]) medium types were used, depending on the species being tested. The absorbance was calibrated to each species, and was measured between 450 nm to 650 nm.

For a further series, the system named is Escherichia coli. The description is as above. The conditions noted are these: LB, TSB. As to the method: as §1
The test system of a further series is Lactococcus lactis. The description is as above. The conditions noted are these: TSB. As to the method: as §1
A further series concerns Enterobacter cloacae. Described as above. The conditions noted are these: TSB. As to the method:
as §1

The test system of a further series is Lactobacillus saeki. Described as above. The conditions noted are these: TSB. As to the method: as §1
The subject of a further series is Candida albicans. Described as above. The conditions noted are these: RPMI-MOPS. As to the method: as §1

B1: psoriasin: Recombinant human psoriasin (S100a7) containing a histidine tag, amino acid sequence SEQ ID NO: 11, expression vector pET-28a (protein, listed as Homo sapiens)
chain: MSNTQAERSIIGMIDMFHKYTRRDDKIEKPSLLTMMKENFPNFLSACDKKGTNYLADVFEKKDKNEDKKIDFSEFLSLLGDIATDYHKQSHGAAPCSGGSQ
On to B1, for which the “antimicrobial activity against E. coli after thermal exposure” value with E. coli (70° C for 15, 30 and 60 minutes, all concentrations) is “retained full antimicrobial activity”; in the series on E. coli (80° C and 90° C for 1 hour), “inhibited the growth of E. coli, though to a lesser extent”. Moreover, in the series with E. coli (70° C, 80° C, 90° C for 15 minutes, 0.4%, 0.2% or 0.1% psoriasin), the “ability to inhibit E. coli after thermal exposure” value is given as “maintained its ability to inhibit the growth of E. coli”. For the same molecule, the “inhibitory properties after thermal treatment” value in series [1] was “maintained its inhibitory properties”. Besides, the IC90 in the series on Listeria monocytogenes worked out at 75 µM; in the series on Escherichia coli, 100 µM; in the series on Lactococcus lactis it was 45 µM; with Enterobacter cloacae, 28 µM; with Lactobacillus saeki, 50 µM; in the series with Candida albicans it was 0.5 µM.

One may read the IC90 as the concentration needed for an effect of 90%. A low value points to an effect from little substance.
